Target: the molecule itself
Assay: crystal structure

B1: recombinant mouse apoptosis inducing factor AIFΔ1–101 (domain or fragment, UniProt Q9Z0X1 102-612, looked up)
chain: GLSPEEKQRRAIASATEGGSVPQIRAPSHVPFLLIGGGTAAFAAARSIRARDPGARVLIVSEDPELPYMRPPLSKELWFSDDPNVTKTLQFRQWNGKERSIYFQPPSFYVSAQDLPNIENGGVAVLTGKKVVHLDVRGNMVKLNDGSQITFEKCLIATGGTPRSLSAIDRAGAEVKSRTTLFRKIGDFRALEKISREVKSITVIGGGFLGSELACALGRKSQASGIEVIQLFPEKGNMGKILPQYLSNWTMEKVKREGVKVMPNAIVQSVGVSGGRLLIKLKDGRKVETDHIVTAVGLEPNVELAKTGGLEIDSDFGGFRVNAELQARSNIWVAGDAACFYDIKLGRRRVEHHDHAVVSGRLAGENMTGAAKPYWHQSMFWSDLGPDVGYEAIGLVDSSLPTVGVFAKATAQDNPKSATEQSGTGIRSESETESEASEITIPPSAPAVPQVPVEGEDYGKGVIFYLRDKVVVGIVLWNVFNRMPIARKIIKDGEQHEDLNEVAKLFNIHED
B1 was tested, and the “stoichiometry N” value was 2.

From article PMC2726748 (Journal of molecular biology, 2009)
